According to PMC6546747, “Wwp2 maintains cartilage homeostasis through regulation of Adamts5” (Nature Communications, 2019):

Molecular target: T1, Wwp2 protein purified from transfected HEK293T cells (in vitro pull-down) (mouse, UniProt Q9DBH0 1-870)
T1 construct: Wwp2; plasmids were built from full-length cDNA NM_025830.3; source: HEK293T, transfected, purified (tagged protein magnetic purification kit)
Assay: pull-down; in vitro pull-down using His-tag (Dynabeads His-Tag Isolation and Pulldown); proteins purified from transfected HEK293T cells
Settings: both partners purified

T1 sequence (Q9DBH0 whole entry): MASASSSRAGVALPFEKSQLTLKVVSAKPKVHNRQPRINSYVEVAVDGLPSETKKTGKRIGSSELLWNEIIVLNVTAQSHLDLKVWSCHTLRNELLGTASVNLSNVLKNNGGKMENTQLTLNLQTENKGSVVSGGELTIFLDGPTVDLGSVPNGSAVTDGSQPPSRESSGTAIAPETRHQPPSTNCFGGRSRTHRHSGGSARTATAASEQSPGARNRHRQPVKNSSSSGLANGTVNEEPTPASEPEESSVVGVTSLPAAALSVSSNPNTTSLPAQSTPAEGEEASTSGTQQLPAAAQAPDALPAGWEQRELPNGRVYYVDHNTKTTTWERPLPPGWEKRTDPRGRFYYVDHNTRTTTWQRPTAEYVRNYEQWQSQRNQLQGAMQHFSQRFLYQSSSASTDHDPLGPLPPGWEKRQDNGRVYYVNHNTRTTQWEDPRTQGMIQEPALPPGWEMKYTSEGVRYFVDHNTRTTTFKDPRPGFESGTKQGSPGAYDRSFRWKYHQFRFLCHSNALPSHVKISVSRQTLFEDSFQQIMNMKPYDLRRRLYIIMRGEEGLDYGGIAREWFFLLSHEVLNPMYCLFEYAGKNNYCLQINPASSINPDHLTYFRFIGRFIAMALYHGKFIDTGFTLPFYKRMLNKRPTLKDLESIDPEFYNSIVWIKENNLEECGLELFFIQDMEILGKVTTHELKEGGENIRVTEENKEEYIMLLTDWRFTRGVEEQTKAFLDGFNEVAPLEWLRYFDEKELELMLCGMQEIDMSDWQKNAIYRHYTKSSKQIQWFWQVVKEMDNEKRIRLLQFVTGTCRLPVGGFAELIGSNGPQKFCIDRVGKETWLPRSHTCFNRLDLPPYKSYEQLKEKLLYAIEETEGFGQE

B1: Runx2 protein purified from transfected HEK293T cells (in vitro pull-down) (natural protein, mouse, UniProt Q08775-5 1-528, looked up)
chain: MASNSLFSAVTPCQQSFFWDPSTSRRFSPPSSSLQPGKMSDVSPVVAAQQQQQQQQQQQQQQQQQQQQQQQQQQQQQEAAAAAAAAAAAAAAAAAAVPRLRPPHDNRTMVEIIADHPAELVRTDSPNFLCSVLPSHWRCNKTLPVAFKVVALGEVPDGTVVTVMAGNDENYSAELRNASAVMKNQVARFNDLRFVGRSGRGKSFTLTITVFTNPPQVATYHRAIKVTVDGPREPRRHRQKLDDSKPSLFSDRLSDLGRIPHPSMRVGVPPQNPRPSLNSAPSPFNPQGQSQITDPRQAQSSPPWSYDQSYPSYLSQMTSPSIHSTTPLSSTRGTGLPAITDVPRRISDDDTATSDFCLWPSSLSKKSQAGASELGPFSDPRQFPSISSLTESRFSNPRMHYPATFTYTPPVTSGMSLGMSATTHYHTYLPPPYPGSSQSQSGPFQTSSTPYLYYGTSSASYQFPMVPGGDRSPSRMVPPCTTTSNGSTLLNPNLPNQNDGVDADGSHSSSPTVLNSSGRMDESVWRPY
notes: Runx2; plasmids were built from full-length cDNA NM_001146038.2; source: HEK293T, transfected, purified (tagged protein magnetic purification kit)
binding result: binds
